In paper PMC6040593 (Molecular cell, 2017):
Blank lines part the entries; values can stand above or below the binder they belong to.

Legend:
[1] = target: T1, soluble region of S. cerevisiae Msp1 (Δ1-32), wild type (S. cerevisiae), P28737; experiment: SEC + SEC-MALS; settings: remark: other sources report otherwise
T1 chain: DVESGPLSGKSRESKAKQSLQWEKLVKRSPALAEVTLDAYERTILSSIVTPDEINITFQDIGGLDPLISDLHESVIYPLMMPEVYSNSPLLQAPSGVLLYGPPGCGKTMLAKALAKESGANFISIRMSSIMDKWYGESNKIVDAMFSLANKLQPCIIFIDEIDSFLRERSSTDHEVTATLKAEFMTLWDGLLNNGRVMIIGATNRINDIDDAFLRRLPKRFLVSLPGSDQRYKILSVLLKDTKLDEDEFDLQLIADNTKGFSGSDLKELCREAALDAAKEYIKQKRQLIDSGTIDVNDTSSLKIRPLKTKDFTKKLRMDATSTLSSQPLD

[2] = target: T1, soluble region of S. cerevisiae Msp1 …; experiment: SEC + SEC-MALS; settings: remark: other sources report otherwise
SEC + SEC-MALS = target: the molecule itself; experiment: SEC + SEC-MALS
SEC = target: the molecule itself; experiment: SEC

stoichiometry N [1]: 6
stoichiometry N [2]: 2
B1: soluble region of S. cerevisiae Msp1 (Δ1-32), wild type, P28737 33-362 (domain or fragment)
chain: DVESGPLSGKSRESKAKQSLQWEKLVKRSPALAEVTLDAYERTILSSIVTPDEINITFQDIGGLDPLISDLHESVIYPLMMPEVYSNSPLLQAPSGVLLYGPPGCGKTMLAKALAKESGANFISIRMSSIMDKWYGESNKIVDAMFSLANKLQPCIIFIDEIDSFLRERSSTDHEVTATLKAEFMTLWDGLLNNGRVMIIGATNRINDIDDAFLRRLPKRFLVSLPGSDQRYKILSVLLKDTKLDEDEFDLQLIADNTKGFSGSDLKELCREAALDAAKEYIKQKRQLIDSGTIDVNDTSSLKIRPLKTKDFTKKLRMDATSTLSSQPLD

B2: soluble (Δ1-32) S. cerevisiae Msp1 E193Q (domain or fragment, UniProt P28737 33-362, looked up)
chain: DVESGPLSGKSRESKAKQSLQWEKLVKRSPALAEVTLDAYERTILSSIVTPDEINITFQDIGGLDPLISDLHESVIYPLMMPEVYSNSPLLQAPSGVLLYGPPGCGKTMLAKALAKESGANFISIRMSSIMDKWYGESNKIVDAMFSLANKLQPCIIFIDQIDSFLRERSSTDHEVTATLKAEFMTLWDGLLNNGRVMIIGATNRINDIDDAFLRRLPKRFLVSLPGSDQRYKILSVLLKDTKLDEDEFDLQLIADNTKGFSGSDLKELCREAALDAAKEYIKQKRQLIDSGTIDVNDTSSLKIRPLKTKDFTKKLRMDATSTLSSQPLD
stoichiometry N (SEC + SEC-MALS): 6

B3: soluble (Δ1-32) S. cerevisiae Msp1 E193Q H206A/E207A (domain or fragment, UniProt P28737 33-362, looked up)
chain: DVESGPLSGKSRESKAKQSLQWEKLVKRSPALAEVTLDAYERTILSSIVTPDEINITFQDIGGLDPLISDLHESVIYPLMMPEVYSNSPLLQAPSGVLLYGPPGCGKTMLAKALAKESGANFISIRMSSIMDKWYGESNKIVDAMFSLANKLQPCIIFIDQIDSFLRERSSTDAAVTATLKAEFMTLWDGLLNNGRVMIIGATNRINDIDDAFLRRLPKRFLVSLPGSDQRYKILSVLLKDTKLDEDEFDLQLIADNTKGFSGSDLKELCREAALDAAKEYIKQKRQLIDSGTIDVNDTSSLKIRPLKTKDFTKKLRMDATSTLSSQPLD
stoichiometry N (SEC): 6

B4: soluble (Δ1-32) S. cerevisiae Msp1 E193Q W166A/Y167A (domain or fragment, UniProt P28737 33-362, looked up)
chain: DVESGPLSGKSRESKAKQSLQWEKLVKRSPALAEVTLDAYERTILSSIVTPDEINITFQDIGGLDPLISDLHESVIYPLMMPEVYSNSPLLQAPSGVLLYGPPGCGKTMLAKALAKESGANFISIRMSSIMDKAAGESNKIVDAMFSLANKLQPCIIFIDQIDSFLRERSSTDHEVTATLKAEFMTLWDGLLNNGRVMIIGATNRINDIDDAFLRRLPKRFLVSLPGSDQRYKILSVLLKDTKLDEDEFDLQLIADNTKGFSGSDLKELCREAALDAAKEYIKQKRQLIDSGTIDVNDTSSLKIRPLKTKDFTKKLRMDATSTLSSQPLD
stoichiometry N (SEC): 6
